Assay results taken from article PMC3681702.
Like-named read-outs stand apart in the source and are kept apart here.

Legend:
[1] = biological target: p75 C257A/G266I mutant tagged with mEGFP (human) (UniProt P08138); experiment: non-reducing SDS-PAGE of immunoprecipitated protein
[2] = biological target: p75 G247C mutant tagged with mEGFP (human) (UniProt P08138); experiment: as above
[3] = biological target: p75 G247C/Δ250 mutant tagged with mEGFP (human); experiment: as above
[4] = biological target: p75 Δ193/C257A/G266I mutant tagged with mEGFP (human); experiment: number and brightness
[5] = biological target: wild-type neurotrophin receptor p75 tagged with mEGFP (p75-EGFP) (human) (UniProt P08138); experiment: photon-counting histogram
[6] = biological target: wild-type neurotrophin receptor p75 tagged with mEGFP (p75-EGFP) (human) (UniProt P08138); experiment: non-reducing SDS-PAGE of immunoprecipitated protein
[7] = biological target: wild-type neurotrophin receptor p75 tagged with mEGFP (p75-EGFP) (human) (UniProt P08138); experiment: as above; remark: listed apart in the source
[8] = biological target: wild-type neurotrophin receptor p75 tagged with mEGFP (p75-EGFP) (human) (UniProt P08138); experiment: number and brightness

Substance: p75 C257A/G266I mutant tagged with mEGFP (from UniProt P08138 29-427) (receptor)
- percent recovered as dimer [1]: 0.8%

Substance: p75 G247C mutant tagged with mEGFP (from UniProt P08138 29-427) (receptor)
- percent recovered as dimer [2]: 29%

Substance: p75 G247C/Δ250 mutant tagged with mEGFP (receptor)
- percent recovered as dimer [3]: 56%

Substance: p75 Δ193/C257A/G266I mutant tagged with mEGFP (receptor)
- stoichiometry N (molecules per oligomer) [4]: 2.9

Substance: wild-type neurotrophin receptor p75 tagged with mEGFP (p75-EGFP) (from UniProt P08138 29-427)
- median brightness normalised to EGFP [5]: 1.71 x EGFP
- stoichiometry N [5]: 3
- stoichiometry N (EGFP molecules per complex) [5]: 1 to 5
- percent recovered as dimer [6]: 5.8%
- percent recovered as dimer [7]: 6.9%
- average brightness normalised to EGFP, center of the TGN [8]: 6.9 x EGFP
- average brightness normalised to EGFP, periphery of the TGN [8]: 10.4 x EGFP
- stoichiometry N (molecules per oligomer) [8]: 8.8
